2 molecules from patent EP2287285A2 (UAB RESEARCH FOUNDATION, dated 2011) can be followed below.

Assay [1] deals with T1, TRAIL-R3 (DcR-1)/hIgG1 fusion protein (human, UniProt O14798 26-236, limits assumed).
T1 sequence (looked up): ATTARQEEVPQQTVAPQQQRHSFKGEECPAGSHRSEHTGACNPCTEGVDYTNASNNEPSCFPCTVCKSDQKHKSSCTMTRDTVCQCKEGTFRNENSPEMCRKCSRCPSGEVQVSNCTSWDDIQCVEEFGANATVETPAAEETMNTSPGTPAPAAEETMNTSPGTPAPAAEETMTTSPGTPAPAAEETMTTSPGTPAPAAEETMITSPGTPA
Briefly: Western blot, 0.5 µg of each protein.

Assay [2] addresses T2, TRAIL-R4 (DcR-2)/hIgG1 fusion protein (human, UniProt Q9UBN6 56-211, limits assumed).
T2 sequence (looked up): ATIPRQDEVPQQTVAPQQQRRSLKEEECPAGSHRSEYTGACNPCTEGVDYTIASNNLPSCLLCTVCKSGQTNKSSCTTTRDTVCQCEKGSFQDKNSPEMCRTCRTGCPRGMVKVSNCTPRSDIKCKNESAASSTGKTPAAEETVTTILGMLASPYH
Briefly: Western blot, 0.5 µg of each protein. On the technique in general: In western blotting, separated proteins are transferred to a membrane and probed.

For assay [3], the target named is T3, CD95/hIgG1 (soluble form of human Fas) (human, UniProt P25445 26-173, limits assumed).
T3 construct: Provided by Amgen; also called Fas (CD95)
T3 sequence (looked up): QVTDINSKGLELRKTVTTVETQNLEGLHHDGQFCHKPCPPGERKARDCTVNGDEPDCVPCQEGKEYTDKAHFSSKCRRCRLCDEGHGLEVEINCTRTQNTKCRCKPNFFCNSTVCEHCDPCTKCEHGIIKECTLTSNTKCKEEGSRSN
Briefly: Western blot, 0.5 µg of each protein.

The target in assay [4] is T4, soluble TNFRI (soluble form of human TNFR1) (human, UniProt P19438 41-201, limits assumed).
T4 construct: Provided by Amgen; an Fc part is therefore uncertain and not written; also called TNF receptor I
T4 sequence (looked up): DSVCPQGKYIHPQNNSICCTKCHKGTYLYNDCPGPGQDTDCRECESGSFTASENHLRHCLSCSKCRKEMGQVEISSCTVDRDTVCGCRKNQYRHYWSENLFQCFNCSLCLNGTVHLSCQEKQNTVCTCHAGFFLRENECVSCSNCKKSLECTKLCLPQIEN
Put plainly: Western blot, 0.5 µg of each protein.

Assay [5] addresses T5, human DR4, full length, on the cell surface (Cos-7 cells transfected with full-length DR4 cDNA); human cell … (human, UniProt O00220 24-468).
T5 construct: whole, on cells; also called cell surface DR4
Briefly: flow cytometry of transfected Cos-7 cells (Fig. 1c). Background: Flow cytometry measures light scatter and fluorescence of single cells or particles in a stream.

For assay [6], the target named is T6, human DR5, full length, on the cell surface (Cos-7 cells transfected with full-length human DR5 cDNA); human … (human, UniProt O14763 56-440).
T6 construct: whole, on cells; also called cell surface DR5; human DR5 antigen
Briefly: radioisotope labeled TRA-8 on a breast cancer cell line in vitro.

Assay [7] deals with T7, DR4/hIgG1 (TRAIL-R1) fusion protein (human, UniProt O00220 24-239, limits assumed).
T7 construct: also called DR4-Ig
Put plainly: ELISA on plates coated with 2 µg/ml DR4-Ig (Fig. 1b, middle panel). A general note: ELISA stands for enzyme-linked immunosorbent assay.

Assay [8] has as its target T8, murine DR5/hIgG1 fusion protein (murine; human, UniProt Q9QZM4 53-180, limits assumed).
T8 construct: also called murine homologue of DR5
Put plainly: ELISA, absorbance 450 nm/650 nm (Fig. 1a, column 8 of lower panel).

The target in assay [9] is T9, human DR5/hIgG1 fusion protein (immunogen); residues 1-180 of the extracellular portion of DR5 fused to the … (human, UniProt O14763 56-180).
T9 construct: range 1-180; also called DR5-IgG; DR5-IgG1
Briefly: ELISA on coated DR5-Ig, one-site binding model, non-linear regression.

Assay [10] has as its target T7, DR4/hIgG1 (TRAIL-R1) fusion protein. Briefly: ELISA on plates coated with 2 µg/ml DR4-Ig, HRP anti-Flag detection.

B1: TRA-8 monoclonal anti-human DR5 antibody (mouse-mouse hybridoma TRA-8, ATCC PTA-1428) (antibody, mouse IgG1, kappa, V domains shown)
VH: EVMLVESGGGLVKPGGSLKLSCAASGFTFSSYVMSWVRQTPEKRLEWVATISSGGSYTYYPDSVKGRFTISRDNAKNTLYLQMSSLRSEDTAMYYCARRGDSMITTDYWGQGTTLTVSS
VL: DIVMTQSHKFMSTSVGDRVSITCKASQDVGTAVAWYQQKPGQSPKLLIYWASTRHTGVPDRFTGSGSGTDFTLTISNVQSEDLADYFCQQYSSYRTFGGGTKLEIKR
notes: also called anti-DR5 antibody (clone: TRA-8)
As to B1, the binding result was “no binding (tested: 1 µg/ml)” in [1]; “no binding (tested: 1 µg/ml)” in assay [2]; “no binding (tested: 1 µg/ml)” in assay [3]; “no binding (tested: 1 µg/ml)” in assay [4]; “no binding” in [5]; “no binding” in assay [7]. In addition, the binding result in assay [8] is given as “no binding”. Also, the Kd in assay [6] and in [9] was 3 nM in each case.

B2: soluble recombinant human TRAIL (Alexis): extracellular domain of human TRAIL (aa residues 95 to 281) fused at the N-terminus to a FLAG-tag and an 8 amino acid … (ligand, UniProt P50591 95-281, looked up)
chain: TSEETISTVQEKQQNISPLVRERGPQRVAAHITGTRGRSNTLSSPNSKNEKALGRKINSWESSRSGHSFLSNLHLRNGELVIHEKGFYYIYSQTYFRFQEEIKENTKNDKQMVQYIYKYTSYPDPILLMKSARNSCWSKDAEYGLYSIYQGGIFELKENDRIFVSVTNEHLIDMDHEASFFGAFLVG
notes: range 95-281; Bought reagent; also called TRAIL-FLAG; soluble TRAIL; not shown: FLAG tag; 8 amino acid linker peptide
In the case of B2, the binding result in [10] was “binds”.
